Read-outs that look alike come from different tables or passages of the source.
How the values were obtained:
Assay in all cases: EMSA
SOX9 [1] = biological target: T1, SOX9 (UniProt P48436 1-509)
DMRT1 = DMRT1 (mouse, UniProt Q9QZ59 1-374)
GATA4 = GATA4 (mouse, UniProt Q08369 1-441)
SOX9 [2] = biological target: T1, SOX9; remark: listed apart in the source

DMRT1, sequence (Q9QZ59 whole entry): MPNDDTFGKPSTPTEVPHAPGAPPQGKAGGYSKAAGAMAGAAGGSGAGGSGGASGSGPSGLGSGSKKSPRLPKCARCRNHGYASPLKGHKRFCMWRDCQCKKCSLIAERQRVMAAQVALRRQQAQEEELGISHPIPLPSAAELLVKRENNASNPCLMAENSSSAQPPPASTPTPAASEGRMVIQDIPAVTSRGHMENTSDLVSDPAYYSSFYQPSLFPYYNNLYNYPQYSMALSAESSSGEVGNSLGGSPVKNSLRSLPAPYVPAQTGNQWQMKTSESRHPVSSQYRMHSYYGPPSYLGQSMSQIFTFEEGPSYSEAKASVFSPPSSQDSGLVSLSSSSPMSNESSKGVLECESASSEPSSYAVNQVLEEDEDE
GATA4, sequence (Q08369 whole entry): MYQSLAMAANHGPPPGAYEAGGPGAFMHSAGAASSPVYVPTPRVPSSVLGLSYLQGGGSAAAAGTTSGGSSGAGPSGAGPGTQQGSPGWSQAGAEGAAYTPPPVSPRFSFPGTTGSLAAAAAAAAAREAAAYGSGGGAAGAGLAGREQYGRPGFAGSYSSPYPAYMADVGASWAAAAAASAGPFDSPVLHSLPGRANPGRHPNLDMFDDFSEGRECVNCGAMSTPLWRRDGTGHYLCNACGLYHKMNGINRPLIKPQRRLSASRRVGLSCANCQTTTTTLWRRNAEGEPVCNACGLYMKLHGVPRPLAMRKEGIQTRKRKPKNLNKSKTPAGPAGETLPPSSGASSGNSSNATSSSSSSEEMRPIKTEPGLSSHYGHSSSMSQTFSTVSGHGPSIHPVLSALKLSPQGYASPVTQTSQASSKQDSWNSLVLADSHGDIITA
T1 sequence (P48436 whole entry): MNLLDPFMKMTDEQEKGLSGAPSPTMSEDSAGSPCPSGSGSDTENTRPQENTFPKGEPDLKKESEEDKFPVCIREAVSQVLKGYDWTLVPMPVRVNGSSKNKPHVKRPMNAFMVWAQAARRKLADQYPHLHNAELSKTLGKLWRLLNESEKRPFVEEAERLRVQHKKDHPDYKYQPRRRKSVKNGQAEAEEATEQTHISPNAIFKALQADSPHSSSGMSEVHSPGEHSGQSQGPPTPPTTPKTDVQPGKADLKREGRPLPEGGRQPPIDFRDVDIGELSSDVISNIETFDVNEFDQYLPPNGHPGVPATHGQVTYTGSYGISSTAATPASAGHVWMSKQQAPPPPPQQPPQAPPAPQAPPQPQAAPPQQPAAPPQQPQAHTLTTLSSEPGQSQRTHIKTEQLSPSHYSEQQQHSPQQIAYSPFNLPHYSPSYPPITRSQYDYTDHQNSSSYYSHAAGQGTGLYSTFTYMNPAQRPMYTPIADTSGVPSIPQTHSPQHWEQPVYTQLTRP

| Binder | binding result (SOX9 [1]) | binding result (DMRT1) | binding result (GATA4) | binding result (SOX9 [2]) |
| --- | --- | --- | --- | --- |
| Lmo4 (dsDNA) DNA 1: GGCATCTCCCATTATTGTTCCAAATCTCATTTCATTTTGAA DNA 2: TTCAAAATGAAATGAGATTTGGAACAATAATGGGAGATGCC | binds | no binding | binds | – |
| Lats2 (dsDNA) DNA 1: GGCCGAGCGGGACATTCGCTACATTGTTGGCATTCCACGGGCG DNA 2: CGCCCGTGGAATGCCAACAATGTAGCGAATGTCCCGCTCGGCC | – | binds | no binding | binds |
| Mrpl45 (dsDNA) DNA 1: GGGTTTTTTTCACCGATTGTAAATAAGGTGTAACAATGTGTTAAGGAACCAGGA DNA 2: TCCTGGTTCCTTAACACATTGTTACACCTTATTTACAATCGGTGAAAAAAACCC | binds | binds | binds | – |
